From the supplement of paper PMC9876800

Test system: peptide library, one residue held at a place counted from the S/T acceptor
Assay: relative phosphorylation of the sub-library (ratio to the mean residue at this position); human; higher = residue favoured
Outline: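 In 384-well plates, purified recombinant kinases (human or orthologue constructs) were incubated for 90 min under kinase-specific conditions with 50 μM biotinylated degenerate peptide sub-libraries and 50 μM ATP spiked with γ-32P-ATP. Each sub-library fixed a single residue at one position around a central Ser/Thr. Relative sub-library phosphorylation, measured by phosphorimaging and densitometry of streptavidin membrane spots, is given as a ratio to the mean residue at that position.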

TSSK1B, construct: Full length, sequence (Q9BXA7 whole entry, looked up): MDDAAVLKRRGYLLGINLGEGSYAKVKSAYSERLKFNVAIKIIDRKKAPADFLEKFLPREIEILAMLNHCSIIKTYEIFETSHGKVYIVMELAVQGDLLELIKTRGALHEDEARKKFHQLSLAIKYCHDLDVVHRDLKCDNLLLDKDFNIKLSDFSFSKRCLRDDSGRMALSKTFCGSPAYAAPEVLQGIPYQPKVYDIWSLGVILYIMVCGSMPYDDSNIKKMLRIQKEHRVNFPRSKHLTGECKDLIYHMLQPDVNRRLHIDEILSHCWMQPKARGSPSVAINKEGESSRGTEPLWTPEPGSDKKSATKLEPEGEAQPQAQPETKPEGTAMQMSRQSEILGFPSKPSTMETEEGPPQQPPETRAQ

TSSK1B, construct: Full length (from UniProt Q9BXA7)
relative phosphorylation
Conditions | M fixed | N fixed | P fixed | Q fixed | R fixed | V fixed | W fixed | Y fixed | pThr fixed | pTyr fixed
at +1 | – | 1.05 | 0.176 | 1.38 | 1.54 | 0.935 | 0.893 | 1.19 | 0.709 | 0.793
at +2 | – | 0.881 | 0.61 | 0.997 | 0.586 | 1.07 | 0.845 | 0.96 | 0.515 | 0.437
at +3 | – | 1.92 | 0.392 | 1.07 | 0.953 | 0.632 | 1.56 | 0.851 | 0.365 | 0.381
at +4 | – | 0.793 | 0.702 | 0.683 | 0.529 | 1.34 | 0.719 | 0.62 | 0.424 | 0.396
at -1 | 0.885 | 0.98 | 1.96 | 1.17 | 1.98 | 0.59 | 0.601 | 0.817 | 0.191 | 0.445
at -2 | 0.681 | 1.22 | 0.794 | 1.29 | 1.72 | 1.11 | 0.401 | 0.623 | 0.303 | 0.326
at -3 | 0.607 | 0.887 | 1.3 | 0.858 | 3.76 | 0.545 | 0.465 | 0.772 | 0.574 | 0.424
at -4 | 1.12 | 0.889 | 0.592 | 0.864 | 1.81 | 0.797 | 0.73 | 0.805 | 0.596 | 0.432
at -5 | 1.14 | 0.477 | 1.26 | 0.783 | 1.09 | 1.76 | 0.734 | 0.767 | 0.457 | 0.65
